Test: soluble on expression in E. coli; label from the status in PepcDB or PDB records

Question: With “MIVCMSVSLLRSYAVRRALGALVVAGFLGAGVTGCSNDAGAKTENTVDGSPTPVSTPTDGEGDGAGEPVEETPAEPEQRPTPVEPEAMKTGDKAGAIAAAQYFVEVIEYSMHTSTTDLLEKYSYEHCDRCAHFVEVINTRQEKNVLPKSVVINSSQEGHPEFRGEGAIIWRVPMRLQISEQWETGKEPRKEDVKVSISVANENGRWVLVGIVAED” as the sequence, how does the “soluble on expression in E. coli” value read?
Answer: not soluble

Question: For “MGSDKIHHHHHHMTDIATYNFAYLDEQTKRMIRRAILKGIAIPGYQVPFASREMPMPYGWGTGGVQVTASIIGPDDVLKVIDQGADDTTNAVSIRAFFKKVANVAVTTNTASATIIQTRHRIPEHPLTAGQVLVYQVPIPEPLRFLEPRETETRKMHALEEYGLMHVKLYEDIAKHGRIATTYAYPVKVEGRYVMDPSPTPKFDNPKMHRSPALQLFGAGREKRIYAVPPFTDVVSLDFEDHPFEVQTFDQPCALCAAENVYLDEVILDDHGGHMFVCSDTDHCEKRREEGHRGHLAPETHLGSEKMEPAQ”, which “soluble on expression in E. coli” value is on record?
Answer: not soluble

Question: Which “soluble on expression in E. coli” value does the source give for “MGSSHHHHHHGKTIFVIVPTNEEQVAFLEALAKQDELNFDWQNPPTEPGQPVVILIPSDMVEWFLEMLKAKGIPFTVYVEEGGSENLYFQGGGGGGPKREEQMYMHIRKVYGDNIPEELLQRAKRQREAQDALTLTNMLRTPTPGQTSNALQNDLDPRALIELKSWNGH” here?
Answer: soluble

Question: Which “soluble on expression in E. coli” value does the source give for “MGSDKIHHHHHHMMQKPKVGQDVPEPSAGGMFQRDAMSPSVAHKPVLELKGNLLSLMVLYLFDSDRNLIEQQFTEKISGAKNFFKNAPIVIDLHALQNTSVPVDLSHLSDLFRKHGLVPVGVRGGNVQQQQAALNLSLGILPDAKPASSRGEPQTEVAVQATRDKVFTQPVRSGQQVAALQGDLVVLAAVNPGAEILAGKNIHVYGPLRGRAIAGVHGYSEARIFCRYFDAELVAVAGQYMLNEDFEDSVRGKPVHIFLENDRLKIQPFEI” here?
Answer: not soluble

Question: Which “soluble on expression in E. coli” value does the source give for “MGHHHHHHGGHMSLMASISSLGVGSGLDLSSILDSLTAAQKATLTPISNQQSSFTAKLSAYGTLKSALTTFQTANTALSKADLFSATSTTSSTTAFSATTAGNAIAGKYTISVTHLAQAQTLTTRTTRDDTKTAIATSDSKLTIQQGGDKDPITIDISAANSSLSGIRDAINNAKAGVSASIINVGNGEYRLSVTSNDTGLDNAMTLSVSGDDALQSFMGYDASASSNGMEVSVAAQNAQLTVNNVAIENSSNTISDALENITLNLNDVTTGNQTLTITQDTSKAQTAIKDWVNAYNSLIDTFSSLTKYTAVDAGADSQSSSNGALLGDSTLRTIQTQLKSMLSNTVSSSSYKTLAQIGITTDPSDGKLELDADKLTAALKKDASGVGALIVGDGKKTGITTTIGSNLTSWLSTTGIIKAATDGVSKTLNKLTKDYNAASDRIDAQVARYKEQFTQLDVLMTSLNSTSSYLTQQFENNSNSKEGGS” here?
Answer: soluble

Question: With “MGSDKIHHHHHHTQRWLSGNISNFQYLMHLNTLAGRCYNDLSQYPIFPWVLADYTSSQLDFNNISTFRDFSKPMGAQSPDRLEQFLKRFREWDDPSGETPPYMYGTHYSSAMIVVSYLVRLEPFTQQFLSLQGGHFDLADRMFHSVGDAWTSASRNNMADVKELIPEFFTLPEMFTNTNHFDLGVKQNGIHVNDVLLPAWCHGDPREFIRLHRQALESDYVSSHLHEWIDLIFGYKQNGEEAVKNSNLFHHLFYEGSVDFERIDDPLTRNATIGFVNNFGQIPTQLFKKPHPQK” as the sequence, how does the “soluble on expression in E. coli” value read?
Answer: not soluble

Question: For “SLERSQVFNILRMMPKGAALHLHDIGIVTMDWLVRNVTYRPHCHICFTPRGIMQFRFAHPTPRPSEKCSKWILLEDYRKRVQNVTEFDDSLLRNFTLVTQHPEVIYTNQNVVWSKFETIFFTISGLIHYAPVFRDYVFRSMQEFYEDNVLYMEIRARLLPVYELSGEHHDEEWSVKTYQEVAQKFVETHPEFIGIKIIYSDHRSKDVAVIAESIRMAMGLRIKFPTVVAGFDLVGHEDTGHSLHDYKEALMIPAKDGVKLPYFFHAGETDWQGTSIDRNILDALMLNTTRIGHGFALSKHPAVRTYSWKKDIPIEVCPISNQVLKLVSDLRNHPVATLMATGHPMVISSDDPAMFGAKGLSYDFYEVFMGIGGMKADLRTLKQLAMNSIKYSTLLESEKNTFMEIWKKRWDKFIADVATK”, which “soluble on expression in E. coli” value is on record?
Answer: soluble

Reference: the DeepSol protein solubility set
